According to patent US20030215854, “Detection of DNA-binding proteins” (published 2003):

B1: PO4 Kbfor/KBrev (dsDNA)
DNA 1: AGTTGAGGGGATCCCCAGGAGCGGCTTATCGGTCTATTCAACTCCCCTAGGGG
DNA 2: TCCTGGGGATCCCCTCAACT
modifications: 5' phosphate on Kbfor
B2: PO4 Kbfor/biotinKBrev (dsDNA)
DNA 1: B1 DNA 1
DNA 2: TCCTGGGGATCCCCTCAACT
modifications: 5' phosphate on Kbfor

Assays:
[1] = molecular target: T1, NF-kB p50 (UniProt P19838 P19838:1-433); assay: bead capture with anti-p50 antibody, Luminex; dose dependent; 10 mM Tris pH 7.5, 50 mM NaCl, 2 mM KCl, 2 mM MgCl2, poly dI-dC, room temperature; conditions: tags: Promega E3770; chain copies: 2; duplex with single-stranded 3' tag
Method: P04 Kbfor and KBrev were annealed by first diluting 100 uM oligonucleotide stocks into annealing buffer (40 mM Tris pH 7.5, 100 mM NaCl, and 1 mM EDTA), to give a ratio of 20 nM P04 Kbfor: 1 uM KBrev. 100 ul of the oligonucleotide mix was then heated to 95° C. for 1 minute, and cooled linearly to room temperature over a period of 45 minutes. 1 ul of the annealed mixture containing detection duplexes displaying a single stranded tag sequence was added to 19 ul of transcription factor binding buffer (10 mM tris pH 7.5, 50 mM NaCl, 2 mM KCl, 2 mM MgCl2) containing 250 ng poly dI-dC, and 0.5% bovine serum albumin (fraction V) and incubated with varying amounts of NF-kB P50 protein for 15 minutes at room temperature. 1800 beads suspended in 25 ul of transcription factor binding buffer containing 0.35% BSA was added to appropriate reactions and incubated 30 minutes at room temperature. Following the hybridization of DNA binding protein-detection duplex complexes to bead surfaces, 25 ul of transcription factor binding buffer containing (0.1 ug) of NF-kB P50 specific primary antibody (Santa Cruz Biotechnolgy Cat #SC-114) was added to the detection duplex-sample-bead mix and incubated for 20 minutes at room temperature in the dark while shaking. […] 25 ul of each assay were read using the Luminex 100 instrumentation.

[2] = molecular target: T1, NF-kB p50; assay: protection from lambda exonuclease, signal approx 3600 fluorescent units with p50; poly dI-dC; conditions: tags: Promega E3770; chain copies: 2; label: 3' biotin on KBrev; duplex with single-stranded 3' tag

T1 sequence (P19838 1-433, one chain of several): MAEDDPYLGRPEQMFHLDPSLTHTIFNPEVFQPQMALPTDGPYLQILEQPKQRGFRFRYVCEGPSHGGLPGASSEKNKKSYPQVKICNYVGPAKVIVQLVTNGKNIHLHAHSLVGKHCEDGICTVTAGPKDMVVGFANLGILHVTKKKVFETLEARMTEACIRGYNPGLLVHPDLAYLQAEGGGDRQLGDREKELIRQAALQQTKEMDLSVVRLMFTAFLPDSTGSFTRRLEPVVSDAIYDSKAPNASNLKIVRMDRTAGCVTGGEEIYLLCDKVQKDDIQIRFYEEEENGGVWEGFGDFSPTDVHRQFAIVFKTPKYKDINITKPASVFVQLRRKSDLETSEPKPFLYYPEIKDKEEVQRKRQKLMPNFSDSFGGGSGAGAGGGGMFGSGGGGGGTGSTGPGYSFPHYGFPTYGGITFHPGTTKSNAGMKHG

Row | Binder | binding result [1] | binding result [2]
1 | B1 | binds | –
2 | B2 | – | binds
